The supplement of paper PMC10567573

B1: EPB41L3 (parent)
chain: KKFLTLGSKFRYSGRTQAQTRRAS
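Also: lentivirally expressed fusions sorted by FACS into six bins by GFP to DsRed ratio, PSI derived from sequencing read proportions per bin multiplied by bin number.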

Variants of: B1
Assay: protein stability index of a GFP-peptide fusion (GPS, HEK-293T) (PSI 1-6); higher = more stable
Settings: c terminus: a fixed tail appended
For KKFLTLGSKFRYSGRTQAQTRRAC [S24C], the protein stability index was 2.1.
Work on KKFLTLGSKFRYSGRTQAQTRRAD [S24D] yielded a protein stability index of 3.31.
Variant KKFLTLGSKFRYSGRTQAFTRRAS [Q19F] has a protein stability index of 2.1.
Work on KKFLTLGSKFRYSGRTQARTRRAS [Q19R] yielded a protein stability index of 3.03.
Work on KKFLTLGSKFRYSGRTQAETRRAS [Q19E] yielded a protein stability index of 2.69.
Work on KKFLTLGSKFRYSGRTQAITRRAS [Q19I] yielded a protein stability index of 2.37.
In the case of KKFLTLGSKFRYSGRTQAHTRRAS [Q19H], the protein stability index is reported as 2.52.
Variant KKFLTLGSKFRYSGRTQATTRRAS [Q19T] has a protein stability index of 2.61.
KKFLTLGSKFRYSGRTQAYTRRAS [Q19Y] showed a protein stability index of 2.22.
Variant KKFLTLGSKFRYSGRTQAATRRAS [Q19A] has a protein stability index of 2.68.
KKFLTLGSKFRYSGRTQAPTRRAS [Q19P] gave a protein stability index of 3.19.
KKFLTLGSKFRYSGRTQASTRRAS [Q19S] showed a protein stability index of 2.45.
Variant KKFLTLGSKFRYSGRTQAWTRRAS [Q19W] has a protein stability index of 2.58.
KKFLTLGSKFRYSGRTQANTRRAS [Q19N] gave a protein stability index of 3.41.
With KKFLTLGSKFRYSGRTQACTRRAS [Q19C] the protein stability index was 2.77.
In the case of KKFLTLGSKFRYSGRTQADTRRAS [Q19D], the protein stability index is reported as 1.2.
KKFLTLGSKFRYSGRTYAQTRRAS [Q17Y] gave a protein stability index of 2.12.
For KKFLTLGSKFRYSGRTQAQTRFAS [R22F], the protein stability index was 2.05.
KKFLTLGSKFRYSGRTQAQTRTAS [R22T] gave a protein stability index of 3.24.
With KKFLTLGSKFRYSGRTQAQTRKAS [R22K] the protein stability index was 3.1.
In the case of KKFLTLGSKFRYSGRTQAQTREAS [R22E], the protein stability index is reported as 2.72.
KKFLTLGSKFRYSGRTQAQTRDAS [R22D] gave a protein stability index of 2.24.
For KKFLTLGSKFRYSGRTQAQTRAAS [R22A], the protein stability index was 2.08.
Variant KKFLTLGSKFRYSGRTQAQTRSAS [R22S] has a protein stability index of 2.7.
KKFLTLGSKFRYSGRTQAQTRIAS [R22I] showed a protein stability index of 2.02.
In the case of KKFLTLGSKFRYSGRTQAQTRLAS [R22L], the protein stability index is reported as 2.19.
KKFLTLGSKFRYSGRTQAQTRYAS [R22Y] showed a protein stability index of 2.13.
In the case of KKFLTLGSKFRYSGRTQAQTRNAS [R22N], the protein stability index is reported as 1.87.
For KKFLTLGSKFRYSGRTQAQTRWAS [R22W], the protein stability index was 1.41.
In the case of KKFLTLGSKFRYSGRTQAQTRMAS [R22M], the protein stability index is reported as 1.75.
Work on KKFLTLGSKFRYSGRTQAQTRVAS [R22V] yielded a protein stability index of 2.64.
KKFLTLGSKFRYSGRTQAQTRQAS [R22Q] showed a protein stability index of 2.44.
Work on KKFLTLGSKFRYSGRTQAQTRPAS [R22P] yielded a protein stability index of 2.52.
Variant KKFLTLGSKFRYSGRTQAQHRRAS [T20H] has a protein stability index of 2.91.
In the case of KKFLTLGSKFRYSGRTQAQRRRAS [T20R], the protein stability index is reported as 3.47.
KKFLTLGSKFRYSGRTQAQMRRAS [T20M] gave a protein stability index of 2.32.
KKFLTLGSKFRYSGRTQAQNRRAS [T20N] showed a protein stability index of 2.62.
With KKFLTLGSKFRYSGRTQAQPRRAS [T20P] the protein stability index was 2.81.
Work on KKFLTLGSKFRYSGRTQAQGRRAS [T20G] yielded a protein stability index of 1.9.
Work on KKFLTLGSKFRYSGRTQAQSRRAS [T20S] yielded a protein stability index of 3.56.
With KKFLTLGSKFRYSGRTQAQVRRAS [T20V] the protein stability index was 3.28.
Work on KKFLTLGSKFRYSGRTQAQDRRAS [T20D] yielded a protein stability index of 2.33.
In the case of KKFLTLGSKFRYSGRTQAQFRRAS [T20F], the protein stability index is reported as 2.28.
With KKFLTLGSKFRYSGRTQAQIRRAS [T20I] the protein stability index was 3.28.
In the case of KKFLTLGSKFRYSGRTQAQYRRAS [T20Y], the protein stability index is reported as 2.69.
Work on KKFLTLGSKFRYSGRTQAQLRRAS [T20L] yielded a protein stability index of 2.06.
Work on KKFLTLGSKFRYSGRTQAQKRRAS [T20K] yielded a protein stability index of 3.2.
For KKFLTLGSKFRYSGRTQAQCRRAS [T20C], the protein stability index was 3.77.
Variant KKFLTLGSKFRYSGRTQAQARRAS [T20A] has a protein stability index of 2.64.
In the case of KKFLTLGSKFRYSGRTQAQTFRAS [R21F], the protein stability index is reported as 1.98.
Work on KKFLTLGSKFRYSGRTQAQTKRAS [R21K] yielded a protein stability index of 3.75.
In the case of KKFLTLGSKFRYSGRTQAQTDRAS [R21D], the protein stability index is reported as 2.69.
With KKFLTLGSKFRYSGRTQAQTWRAS [R21W] the protein stability index was 2.85.
For KKFLTLGSKFRYSGRTQAQTTRAS [R21T], the protein stability index was 2.24.
For KKFLTLGSKFRYSGRTQAQTYRAS [R21Y], the protein stability index was 2.48.
KKFLTLGSKFRYSGRTQAQTLRAS [R21L] gave a protein stability index of 1.61.
With KKFLTLGSKFRYSGRTQAQTNRAS [R21N] the protein stability index was 2.1.
For KKFLTLGSKFRYSGRTQAQTSRAS [R21S], the protein stability index was 3.24.
For KKFLTLGSKFRYSGRTQAQTERAS [R21E], the protein stability index was 2.2.
With KKFLTLGSKFRYSGRTQAQTMRAS [R21M] the protein stability index was 1.86.
KKFLTLGSKFRYSGRTQAQTIRAS [R21I] showed a protein stability index of 2.16.
In the case of KKFLTLGSKFRYSGRTQAQTARAS [R21A], the protein stability index is reported as 1.96.
In the case of KKFLTLGSKFRYSGRTQAQTVRAS [R21V], the protein stability index is reported as 3.27.
Variant KKFLTLGSKFRYSGRTQAQTRRRS [A23R] has a protein stability index of 4.08.
For KKFLTLGSKFRYSGRTQAQTRRDS [A23D], the protein stability index was 2.53.
With KKFLTLGSKFRYSGRTQAQTRRYS [A23Y] the protein stability index was 2.13.
Variant KKFLTLGSKFRYSGRTQAQTRRKS [A23K] has a protein stability index of 3.81.
KKFLTLGSKFRYSGRTQAQTRRMS [A23M] showed a protein stability index of 2.49.
KKFLTLGSKFRYSGRTQAQTRRHS [A23H] showed a protein stability index of 3.
For KKFLTLGSKFRYSGRTQAQTRRQS [A23Q], the protein stability index was 3.27.
With KKFLTLGSKFRYSGRTQAQTRRCS [A23C] the protein stability index was 2.24.
Work on KKFLTLGSKFRYSGRTQAQTRRNS [A23N] yielded a protein stability index of 2.85.
For KKFLTLGSKFRYSGRTQAQTRRGS [A23G], the protein stability index was 3.69.
Work on KKFLTLGSKFRYSGRTQAQTRRWS [A23W] yielded a protein stability index of 3.26.
For KKFLTLGSKFRYSGRTQAQTRRES [A23E], the protein stability index was 3.21.
For KKFLTLGSKFRYSGRTQAQTRRTS [A23T], the protein stability index was 2.92.
KKFLTLGSKFRYSGRTQAQTRRLS [A23L] gave a protein stability index of 3.66.
In the case of KKFLTLGSKFRYSGRTQAQTRRIS [A23I], the protein stability index is reported as 3.4.
In the case of KKFLTLGSKFRYSGRTQAQTRRPS [A23P], the protein stability index is reported as 2.5.
In the case of KKFLTLGSKFRYSGRTQAQTRRSS [A23S], the protein stability index is reported as 2.96.
KKFLTLGSKFRYSGRTQKQTRRAS [A18K] showed a protein stability index of 2.61.
KKFLTLGSKFRYSGRTQFQTRRAS [A18F] showed a protein stability index of 2.44.
In the case of KKFLTLGSKFRYSGRTQYQTRRAS [A18Y], the protein stability index is reported as 3.11.
KKFLTLGSKFRYSGRTQEQTRRAS [A18E] gave a protein stability index of 3.23.
For KKFLTLGSKFRYSGRTQNQTRRAS [A18N], the protein stability index was 3.55.
For KKFLTLGSKFRYSGRTQIQTRRAS [A18I], the protein stability index was 2.91.
KKFLTLGSKFRYSGRTQPQTRRAS [A18P] showed a protein stability index of 2.92.
KKFLTLGSKFRYSGRTQHQTRRAS [A18H] gave a protein stability index of 2.49.
Variant KKFLTLGSKFRYSGRTQLQTRRAS [A18L] has a protein stability index of 2.44.
KKFLTLGSKFRYSGRTQTQTRRAS [A18T] gave a protein stability index of 3.1.
Work on KKFLTLGSKFRYSGRTQMQTRRAS [A18M] yielded a protein stability index of 2.77.
Work on KKFLTLGSKFRYSGRTQVQTRRAS [A18V] yielded a protein stability index of 2.84.
For KKFLTLGSKFRYSGRTQSQTRRAS [A18S], the protein stability index was 3.19.
KKFLTLGSKFRYSGRTQQQTRRAS [A18Q] showed a protein stability index of 2.73.
